A short description of this data set: label from the status in PepcDB records.

Take “MTQVSIIVPVLNEESTIHSAVSRLCRDFPDCELIVVDGGSTDATAELAALHATVIGSERGRAKQMNEGARHASGGILWFIHADTAIEPEALGQIRSVLADPAVVAGGLTLRFDRRTPALNYLAWTSNARARRLHHIFGDQAMFIRRTAFDELGGFPDLAIMEDLEMSRRLHRRGPLRLLPATSTASSRRLTAHGTWRMIAFMQYLKLLYFAGADPEAIRARYTAGPRLFPKRNPATLEHHHHHH”: the protein production result is recorded as “failed”.

For the sequence “MTQYTHIRNATGKLTIKNTTFLIDPFLAPKDTYPGFEGTFNYQQRMPMVDLPLSMDDLLSNVTAVVVTHTHLDHWDDTAINSIPKSLPIFVQNTADKELITSQGFIDVRIIFESLEFNGITLRKTGGSHGTVEMYANPVLAPLAGDAMGVIFEAADEPTVYLVGDTVWTSDVEKALLRFDPNVIIMNTGYAQILGFEDSIIMGTKDIGRMVVRKPEAKIIAVHMDTVNHTATSRKDVRKFIKGNNIESHVAVPEDGETITL”, the protein production result was “not failed”.

For “MTRAINDPGNEDPGSLLETDADALLGGAAAQAPEERCRLAAQACIRACERYLALCTESSREQRQHAGDCADLCRLAALLLERRSPWAPAACELAARYALACAERCDGDEPLERECAGACRRFVEACRPLLPALEHHHHHH”, the protein production result is on record as “not failed”.

Consider “MTRAKAPMEGVKLNSLLKVEDFATQSQFLGVNPIWNNNSTQLVEPPSIVNDEEEETEPLLPVEFTLVERNLEDGLVEEIIFSSGGEIDVYDLQGLCDKVGWPRRPLVKLAAALKNSYMVATLHSVMKSSSDSDSSEGGDGEKQQEKKLIGMARATSDHAFNATIWDVLVDPEYQGQGLGKALVEKLVRALLQRDIGNISLFADSQVVDFYQNLGFEADPEGIKGMFWYPK”, for which the protein production result is “failed”.

On to “MTREIIPILPEAPVETARSGNALPLLREIAEHLHHLLETGEASTIDLSALPLTPGDLEWLRAELGGGEVSVTLHADGASTLDETAFPGVWWIIHRNAQGAVTTQFIEVAFVPELVKSPRADVAAARAALVLRMADL”, for which the protein production result is on record as “not failed”.

“MTRKSFPFFLLGLILTVGIDQAVKYWVMHNIPLGTETPLLPFLSLYHVRNSGIAFSFFSSFSHWGLIFLTLIILIFLLWLWKNTQYNKSLTRFGFTLIIGGAIGNLIDRICFYYVIDYILFYINDVFYFAVFNLADTFITLGVIAIIIEELLSWIKRKSTFSE”: the protein production entry was “failed”.

On to “MTRLFSRPYPLGATLNKEGCNFSIHAPGVKDIQLALFASDGSYSLHDLPNEYAGIRHTFIPDIKPGQKYGYVVTRRDEPLLISDPYAKSLDKALHYHPPYTPAKSFDMPKCVVIE”, for which the protein production entry is on record as “failed”.

Turning to “MTRPAHPISRYPVPELAALPDDIRQRILEVQDKAGFVPNVFLTLAHRPDEFRAFFAYHDALMLKDGGLTKGEREMIVVATSAANQCLYCVVAHGAILRIYEKKPLVADQVAVNYLKADIPPRQRAMLDFALKVCKASHEVNEADFEALREHGFTDEDAWDIAAITAFFGLSNRMANTIGMRPNDEFFLMGRVPKSK”, the protein production entry is on record as “not failed”.

As to “MTRRAAEEILPSSLFRDPDTERVTARTGAYLKIGVIAPALMVADVWLAQQLFPGFDAGAQFISELGGPEAPMPEIFNYGMVIAGIAGLFAGAGFAHALEHAGGRRVVSAFAGLFVALTGLGAIFAGIFHWPDPMHRACGVGLGIQFAPLFAAWALWGKPDYRRLAQFSLGWFFGLLLVFALLTGVWNVRTGYDVGYWQRGHAFLGLLWLAIAAWTLERGWRAAVMSEIETASA”, the protein production result was “failed”.

Turning to “MTRRGVALVARRLPSSPGRVYAVKIDEGEDVHSVLSSLAEAEDLGFAMVTGIGGMAEATVAFYSPPEATYYTVDVKPPEGRVIEVAAMTGNIVKTSQGYSVHIHVALGVSPGKSISGHLVKGVVKPFMEVFVVELVSGQGTPGTSVFDHREGFKASYKRLELEHHHHHH”, the protein production result is given as “failed”.

Take “MTRRPLLLPALGLALGVGLGLEGATVPPAALGALPLALLPRLAPLAFAAAGWLAAASARVPPAAPPDGAVLVRGRVVGAPDRLEDRLRFPVRTAGGALLEAWAEPTPWPLALGDEVLFRATLRAPAGRRNPGGRDPGDRLRSGGAALVALADGPVVRTAAPAAASRLERARDRLAEAAGRWLPPDQAALVRAIGTGDRAALDPEASASFARSGLAHVLAVSGFHLVVVAFGLERLLRALLLRADAVAARADPRRVAAALTLPCALLYALATGAGAPVVRAALAAAVILAGALLDRAADPLNSLALAALAILAAEPAALLDASFQLSFAAVAGLALWATPLRGALPVARPAPGSWRARLLEPFLSGAAATVAATLATAPVLAFHFRQLPLLGVAANVAAIPLGAALTALAALAAVAAAASPLAAAPFLLAAGPLAAALRAVSDAAAAPRWGAVGLASPGGWAAAAATALVLGVPALPRRLRLGAGALAAALLLLPGPLRAAAARARGGLEVIFVSVGQGDAALLRLPDGSAVLVDGGGAAGGGPDPGARDLVPLLRDLGVRRLEAVFVSHPHPDHVLGLEAVARAFPVARAYSNGDRGDGPAREVLAALAPVTLAPGEAWERAGVRFEALGGDRTPFAANDASLVLRATYGATTFLFPGDVEAAGEAAAVARGGLRADVVKIPHHGSRTSSTEPFVRAVRARWAVACLGAHNRFGFPHPEPLARWAAAGAEVLRTDEGAVRFLSDGRAVRRVEAGSVLDALATWREQP”: the protein production result is given as “failed”.

In the case of “MTRRTAFFFDELCLWHAAGPHALTLPVGGWVQPPAAAGHAESPETKRRLKSLLDVSGLTARLQLRSAPPASDEDLLRVHPAHYLERFKALSDAGGGSLGQDAPIGPGSYEIARLSAGLAIAALDAVLAGEADNAYSLSRPPGHHCLPDQAMGFCFFANIAVAIEAAKARHGVERVAVLDWDVHHGNGTQAIYYRRDDVLSISLHQDGCFPPGYSGAEDIGEDRGRGFNLNVPLLPGGGHDAYMQAMQRIVLPALERFRPQLIVVASGFDANAVDPLARMQLHSDSFRAMTAMVRDAAERHAGGRLVVVHEGGYSEAYVPFCGLAVIEELSGVRSAVRDPLRDFIELQQPNAAFRDFQRQRLEELAAQFGLCPAQPLQAAR”, the protein production result was “failed”.

Regarding “MTRTISRILVTGTSGQLGALVIEELLKKIHASHLIAAARDPKALMAFSRRGVETRLLDYTDQISIEAAFQGVERLLLVSSNVIDQRLVQHRNVIEAAARAGVGLFAYTSLLHADNSSLLLAKDHVQTEALLKGSGIPYVLLRNGWYTENYTDSIGAALVHGAVLGSAGTGRIAAATRADYAAAAAAILASDVDQAGRTYELAGDEAFTMPEYAAEIAQQSGKPVIYRDLPEAEYAAILMQVGLPESFAAILAQSDIGASQGALFDDSHQLSTLIGRPTTPLREVVAKALSAVR”, the protein production result is recorded as “failed”.

In the case of “MTRTVTGDTVQTRWGPVQVRVTVRNGVITEVTAVACPQENPKDREINSYAIPQLRREALAAQSAQIDSVSGATYTSDGYRQSLQSALDSAGLLEHHHHHH”, the protein production entry was “not failed”.

For the sequence “MTSASAALPQQPGRTKAFLRLVMIEHSVFALPFAYIAALTAMFQWDRNIHWVRLLLVTVAMVGLRTFAMAANRIIDREIDARNPRTAHRELVTGAMSVRHAWTGALVALVFFLGAAALLNPLCLALAPIAVIPMVVYPYGKRFTNFPQAILGLAQAMGPVGGWLAISGEWSWDAVILGLAVGVWIGGFDLIYACQDVETDREVGVMSVPARFGIQAAIWGARVCHAITTALLVWYAFATDAGAFFWFGLVIVAGAFLYEHSIVKPHDLSRLNRAFFSTNGFIGISLFVCALGDLLVRGLTV”, the protein production entry was “failed”.

Take “MTSGATRYRLSCSLRGHELDVRGLVCCAYPPGAFVSVSRDRTTRLWAPDSPNRSFTEMHCMSGHSNFVSCVCIIPSSDIYPHGLIATGGNDHNICIFSLDSPMPLYILKGHKNTVCSLSSGKFGTLLSGSWDTTAKVWLNDKCMMTLQGHTAAVWAVKILPEQGLMLTGSAGKTVKLWKAGRCERTFSGHEDCVRGLAILSETEFLSCANDASIRRWQITGECLEVYYGHTNYIYSISVFPNCRDFVTTAEDRSLRIWKHGECAQTIRLPAQSIWCCCVLDNGDIVVGASDGIIRVFTESEDRTASAEEIKAFEKELSHATIDSKTGDLGDINAEQLPGREHLNEPGTREGQTRLIRDGEKVEAYQWSVSEGRWIKIGDVVGSSGANQQTSGKVLYEGKEFDYVFSIDVNEGGPSYKLPYNTSDDPWLTAYNFLQKNDLNPMFLDQVAKFIIDNTKGQMLGLGNPSFSDPFTGGGRYVPGSSGSSNTLPTADPFTGAGRYVPGSASMGTTMAGVDPFTGNSAYRSAASKTMNIYFPKKEAVTFDQANPTQILGKLKELNGTAPEEKKLTEDDLILLEKILSLICNSSSEKPTVQQLQILWKAINCPEDIVFPALDILRLSIKHPSVNENFCNEKEGAQFSSHLINLLNPKGKPANQLLALRTFCNCFVGQAGQKLMMSQRESLMSHAIELKSGSNKNIHIALATLALNYSVCFHKDHNIEGKAQCLSLISTILEVVQDLEATFRLLVALGTLISDDSNAVQLAKSLGVDSQIKKYSSVSEPAKVSECCRFILNLL”: the protein production result is given as “failed”.

Regarding “MTSHHAIEVTKTVLEVADVAWTAVETYHHHHHHQDENHESTNPISDPRDRELEALRQENRRLRTLLESNLKLFETLAESAAFSHDCPSDLYARLVTMVTSRDFLARLENLRQALSNGTQNQFPFKEPTEDDVKTVEVLIEMDHQEPSWWVLVTDDMVPSNVEEQSAIDNEHYIVVNEEHVIDAVAHFLAKCIMSNPKAKNLKPEELQKLLVQEVTALSKVGKVVDIWHAGKMFYTLSTWGLAFGGLYQARGVLKIAAKGVHATSKVVLRAL”, the protein production entry was “failed”.

On to “MTSIWGQIQHILQNTLAPGLFKVWISPLAGEVDGSTLRVEAPNEFVAGWVRDRLFEDIRTAACGVIGDTVEVVVTAGAPAAAAPRPVLAPRPAVVEVVPTAAPVPSVVPAVEARPSGHAPRRLSAETQQAQEQLGLPLDWAPVPQSRTNWRFSFDDFIVGPNNELACAAARGMCRDGLMTDTLFLSSGPGLGKTHLLHAVGRSLCESSNRSNPNVAYLTAEEFASRLIAALKARDVERFKARYRDVDVLLLEDVHFLQGKEKMQDEVLATVKALQSRGSRIVFSSSFAARDLKNVDNQLVSRFCSGFLAGIERPDFDTRRRILREKARIYQVMLPDNVTDLLAERISTDVRQIESCLHNLILKAKLLNRQISLEMAFEIIGNYAQAETQLDFEGIVRMVCEGFGLSPEQLNSRSRKREYVVARNAAYLLARKHTDLSLKEIGDRFNRRHSTVLKGITALEREMNRETPLGRQVANTISLLERNGRITHARH”, for which the protein production entry is reported as “failed”.

Consider “MTSKSRPNRDLAGRLALAAQLALVLVLAAAPELALAQSTMPGQQLLTFAKNFIIAPIALFAIVISGVAAFIRPDLIKTTGYIAIIAVILYFLLANADRLMQAIRAG”, for which the protein production result is given as “failed”.

For the origin of these results see a protein production outcome set (Wang et al. 2014).
